Legend:
physchem = format: physicochemical
Protocol: Briefly, the radiopharmaceuticals were prepared and purified with Sep-Pak-C18 cartridges and then dissolved in a mixed solution of 5 mL n-octanol and 5 mL PBS. After vortexing for 1 h, the mixture was centrifuged at 10,000 rpm for 10 min. Samples (100 μL, n = 4) from the n-octanol and PBS components were collected and counted using a γ-counter. The […] were calculated as the logarithm of the n-octanol/PBS ratio.

[1] = set-up: species or system KM mice; conditions: mouse, in vivo, iv
Protocol: Female KM mice were randomly divided into three groups (n = 5). […] Blood samples obtained from the canthus vein were collected at different time points post injection (p.i.), weighed, and evaluated using a γ-counter. The results are presented as the percentage injected activity per gram (%IA/g). Nonlinear regression (curve fit) followed by two phase decay was performed using GraphPad Prism version 9.0.0 for Windows, GraphPad Software, San Diego, CA, USA, www.graphpad.com (accessed on 22 May 2022). And then the half-lives values were calculated and determined.

in vivo = assay: in vivo; set-up: species or system C57BL/6 mice; conditions: C57BL/6, mouse, 37 MBq, total radioactivity
Protocol: SPECT/CT imaging was performed using a small animal SPECT/CT imaging system (Mediso Inc., Budapest, Hungary). Each mouse bearing MC38 tumors was injected with a radiotracer at a radioactivity of 37 MBq/1 mCi. The mice were imaged at 1, 4, 12, 24, and 72 h after injection of ^177Lu-Palm-3PRGD2 (37 MBq, 2.7 nmol), and the mice in the blocking study were imaged at 1 h p.i. […] Pinhole SPECT images (peak, 56.1, 112.9, and 208.4 keV; 20% width; frame time, 25 s) were acquired, and CT images were subsequently acquired (50 kV; 0.67 mA; rotation, 210°; exposure time, 300 ms). The raw data were reconstructed in a whole-body region. The SPECT and CT images were then fused using Nucline v 2.01 (Mediso Inc., Budapest, Hungary). The maximum intensity projection (MIP) was determined for whole-body imaging from the posterior view.

CCCCCCCCCCCCCCCC(=O)N[C@@H](CCC(=O)NCCCC[C@H](NC(=O)CN1CCN(CC(=O)O)CCN(CC(=O)O)CCN(CC(=O)O)CC1)C(=O)NCCOCCOCCOCCOCCC(=O)N[C@@H](CCC(=O)NCCOCCOCCOCCOCCC(=O)NCCCC[C@@H]1NC(=O)[C@@H](Cc2ccccc2)NC(=O)[C@H](CC(=O)O)NC(=O)CNC(=O)[C@H](CCCNC(=N)N)NC1=O)C(=O)NCCOCCOCCOCCOCCC(=O)NCCCC[C@@H]1NC(=O)[C@@H](Cc2ccccc2)NC(=O)[C@H](CC(=O)O)NC(=O)CNC(=O)[C@H](CCCNC(=N)N)NC1=O)C(=O)O [^177Lu-Palm-3PRGD2, [^177Lu]Lu-DOTA-Palm-3PRGD2, metal not drawn]
logD (physchem): -1.25 ± 0.07 | Half-Life (T1/2α) [1]: 4.49 min | Half-Life (T1/2β) [1]: 73.42 min | tissue uptake per volume at 1 h (in vivo): 15 ± 0.13 %ID/mL

Source: publication PMC9321335, “Palmitic Acid-Conjugated Radiopharmaceutical for Integrin αvβ3-Targeted Radionuclide Therapy” (Pharmaceutics, 2022)
